According to patent publication US20230071765A1, “COMPOSITIONS HAVING THIOREDOXIN ACTIVITY AND RELATED METHODS” (ORPRO THERAPEUTICS, INC., priority 2020, published 2023):

What was measured:
[1] = SEC-HPLC percent free monomer in solution; assay type: physicochemical
Method: Functional assays 1. Reduction state of ORP100S was quantified using DTNB which reacts with free SH groups resulting in a yellow color change at 412 nm. Fifty microliters of 2.5 mM rhTrx was added to a 96-well plate, followed by 175 microliters of sample buffer and 25 microliters of 6 mM DTNB. After reactions were initiated by the addition of DTNB, change in kinetic absorbance at 412 nm due to DTNB reduction was monitored spectrophotometrically at 30° C. ORP100S concentration was determined by A280 (Nanodrop) using the extinction coefficient of human Trx-1 (7,000). The actual concentrations of free sulfhydryl groups were calculated based on the absorbance at 412 nm and the extinction coefficient of DTNB (14,150) in order to determine the reduction state as percentage of free sulfhydryl. […] 2. Percent of free monomer ORP100S in solution was determined using SEC. Samples were analyzed on a BioBasic S-300 250×4.6 column (Thermo Scientific) run on an Agilent 1100 HPLC system. The SEC-HPLC mobile phase buffer consisted of 40 mM ammonium acetate (pH 5.5), 2 mM EDTA and 450 mM NaCl. Low pH minimized dimerization while the 450 mM NaCl concentration improved resolution. The flow rate was 0.35 mL/min and absorbance was monitored at 280 nm. The length of each run was 20 minutes. The ORP100S monomer percentage was determined by integration of the area under the peak of the monomeric fraction divided by the total area under the curve of the chromatogram. 3. Disulfide bond reduction activity of ORP100S was quantified by assaying the reduction state of a small protein (human insulin) which in its heterodimeric form contains two intermolecular and one intramolecular disulfide, all three of which are known to be suitable thioredoxin substrates. Insulin reduction has classically been used to quantify thioredoxin activity by absorbance change following addition of NADPH and TrxR (Holmgren A., 1979, Thioredoxin catalyzes the reduction of insulin disulfides by dithiothreitol and dihydrolipoamide, J Biol Chem 254:9627-32). Such an approach is not suitable for monothiol C35S thioredoxins ORP-100 and ORP100S due to 1) the lack of cycling resulting from stoichiometric covalent linkage to the disulfide bond substrate and 2) the inability of NADPH and TrxR to reduce Cys32 of the oxidized monothiol Trx active site. Consequently, a new assay was developed based on the use of reverse-phase (RP) HPLC to monitor the rate of conversion of disulfide-bonded insulin heterodimers to monomeric forms. The two chains of human insulin have a total of six Cys residues which form three disulfide bonds in its mature structure. When ORP100S in the reduced form is incubated with dimeric insulin it reacts with these disulfide bonds to disrupt them, simultaneously forming covalent linkages to the ORP100S Cys32. […] The ORP100S samples were incubated with 10 mg/mL insulin for various time points (0-90 min) and the reactions were stopped by addition of iodacetic acid (IA) and trifluoroacetic acid (TFA). Relative activity at each time point was determined from changes in the area under the insulin heterodimer peak following separation over RP-HPLC (Agilent 1100) using an Intrada WP-RP 50×3 (Imtakt) column. Buffer A was 0.1% TFA and Buffer B was 0.1% TFA in acetonitrile. The gradient was […] in 5 min followed by 30 to 60% B in 45 min, then 60 to 80% B for an additional 5 min. The flow rate was 0.2 mL/min and absorbance was measured at 280 nm. In order to evaluate the change in the intact insulin molecule a time 0 baseline was first established using 1 M IA and 0.1% TFA without the addition of ORP100S. The area under the intact insulin heterodimer peak was then determined and set as equivalent to 100%. After the reaction with ORP100S the area of the intact insulin peak (corresponding to retention time) was measured. The percent reduction in intact insulin was then calculated from the decrease in the area following reduction divided by the area at time 0 multiplied by 100.

[2] = material purified with removal of the red fraction, 68.4 mg/ml
[3] = 70 mg/mL in PBS, 25° C., red fraction removed
[4] = 80 mg/mL in PBS, 25° C., red fraction removed
[5] = 90 mg/mL in PBS, 25° C., red fraction removed
[6] = 100 mg/mL in PBS, 25° C., red fraction removed
[7] = 110 mg/mL in PBS, 25° C., red fraction removed

B1: ORP100S: thioredoxin with monothiol active site, Cys35 and non-active Cys 62, 69 and 73 substituted with serine (SEQ ID NO:29) (protein)
chain: MVKQIESKTAFQEALDAAGDKLVVVDFSATWCGPSKMIKPFFHSLSEKYSNVIFLEVDVDDSQDVASESEVKSMPTFQFFKKGQKVGEFSGANKEKLEATINELV
modifications: synthetic peptide motif
[1]; [3]
  % monomer (232 hrs): 93%
  % monomer (Time 0): 93%
[1]; [4]
  % monomer (232 hrs): 93%
  % monomer (Time 0): 94%
[1]; [5]
  % monomer (232 hrs): 92%
  % monomer (Time 0): 94%
[1]; [6]
  % monomer (232 hrs): 93%
  % monomer (Time 0): 95%
[1]; [7]
  % monomer (232 hrs): 92%
  % monomer (Time 0): 95%
[1]; Ox:Red 0:100 mixture
  SEC % monomer: 89%
[1]; Ox:Red 25:75 mixture
  SEC % monomer: 70%
[1]; Ox:Red 50:50 mixture
  SEC % monomer: 52%
[1]; Ox:Red 75:25 mixture
  SEC % monomer: 36%
[1]; Ox:Red 100:0 mixture
  SEC % monomer: 22%
[1]; time 0 to 232 hours, 25° C., PBS, 70-110 mg/ml, red fraction removed
  decrease in percent monomer: 2%
[2]
  Endotoxin level (Endosafe PTS): 0.002 EU/mg
